Results taken from publication PMC9712074 (Cell Reports, 2022).
Substitutions are numbered along the chain they refer to.

B1: BD55-5248 (antibody, V domains shown)
VH: QVQLVESGGGVVQPGRSLRLSCAASGFTFSSYDMYWVRQAPGKGLEWVAVISYDGSSNFYADSVKGRFTISRDNSRNTLSLQMNSLRAEDTAVYFCARERREQLTPVFDHWGQGTLVTVSS
VL: DIQMTQSPSSLSASVGDRVTITCRASQSISSYLNWYQQRPGKAPKLLIYSASTLESGVPSRFSGSGSGTDFTLTINSLQPEDFATYYCQQSYSTLALTFGGGTKVEIK
B2: BD55-5265 (antibody, V domains shown)
VH: EVQLVQSGAEVKKPGESLKISCKGAGYIFTHYWIAWVRQMPGKGLEWMGIVHPGDSDTRYSPSFQAQVTISADKSINTAYLQWSSLKASDTAIYFCARHGVHSGYSGYDRWDGHYYGMDVWGQGTTVTVSA
VL: SYVLTQPPSVSVAPGKTARITCGGNNIGSKSVHWYQQKPGQAPVLVVYDGSERPSGIPERFSGSNSENTATLTISRVEAGDEADYYCQVWNDNSDSLVFGTGTEVTVL
B3: BD55-5226 (antibody, V domains shown)
VH: EVQLVESGGGLVKPGGSLRLSCAASGFTFSSYSMNWVRQAPGKGLEWVSSISMTSSYRHYADSVRGRFTISRDNANNSLFLQMNSLRAEDTAVYFCARDSNLRTGDANDYWGQGTLVTVSS
VL: not shown
B4: BD55-5251 (antibody, V domains shown)
VH: QITLKESGPALVKPTQTLTLTCTFSGFSLSSNGVGVGWIRQSPGKALEWLALIYWDDDKRYTPSLKKRLTVTKDTSKNQVVLTMTNMDPVDTATYYCAHMARPRGLFINPSWFDPWGQGTLVTVSS
VL: QSVLTQPPSASGTPGQRVTISCSGSSSNIGSNTIDWYQQLPGTAPRLLIYGHDLRPSGVPDRFSGSQSGTSASLVISGLQSEDEADYYCAAWDDSLNGPVFGGGTKLTVL
B5: BD55-5259 (antibody, V domains shown)
VH: QITLKESGPTLVKPTQTLTLTCTFSGFSLTMPEVGVAWVRQPPGKALEWLALIYGDDNKRYSPSLESRLTITKDSSKNQVVLTMTNLDSVDTATYYCARRKFLWDSDPVAFDYWGLGTLVIVSS
VL: DIVMTQTPLSLPVTLGQPASISCRSSQSLVHIDGNIYLSWLQQRPGQPPRLLIYKISNRFSGVPDRFSGSGSGTDFTLKISRVEAEDVGVYYCMQATQFPHEMYTFGQGTKLEIR
B6: BD55-5256 (antibody, V domains shown)
VH: QVQLVQSGTEVKKPGSSVKVSCKASGGPFSGYVINWVRQAPGQGLEWMGGIIPVFETVKYAQKFQGRVTITAGESASTAYMELNSLRSEDTAVYYCAKSKYHSGYDVLTGRADFSLPFDYWGQGTLVTVSS
VL: DIQMTQSPSSLSASVGDRVIITCQASQDITNSLSWYQQKPGKAPKLLIYGAFNLETGVPSRFSGSGSGTDFTFAISSLQPEDIATYFCQQYADLPYTFGQGTKLDIK
B7: BD55-5276 (antibody, V domains shown)
VH: EVHLEESGGGLVHPGRSLRLSCAASGFTLDEYAMHWVRRAPGKGLEWVSGISWNSGARGYADSVKGRFTISRDNAKNSLYLQMNSLRAEDTAFYYCAKDNSHGSGTAWDWLDSWGQGTLVTVSS
VL: NFMLTQPHSVSESPGKTVTISCTRSSGTITNNYVQWYRQRPGSSPTTVIFEDNQRPSGVPDRFSGSIDSSSNSASLTISGLKTEDEADYYCQSHDSSNWVFGGGTKLTVL
B8: BD55-5215 (antibody, V domains shown)
VH: EVQLVESGGGLGQPGGSLRLSCAASGFTFSRYGMGWVRQAPGKGLEWVSVISGSGGATYYADSVKGRFTISRDNSKNTLFLQMNSLRVEDTAVYYCAKDGGQLQLVEIFTFDPWGRGTLVTVSS
VL: DIQMTQSPSSLSASVGDRVTITCRASQGIRNSLAWYQQKPGKAPKLLLYAASRLESGVPSRFSGSGSGTDYTLTISSLQPEDFATYYCQQYYSAWTFGQGTKVEIK
B9: BD55-5238 (antibody, V domains shown)
VH: QEQLVESGGGVVQPGRSLRLSCAASGLTFSSYAMHWVRQAPGKGLEWVAVIWYNGLKKYYADSVKGRFTISRDNYKNTAYLQMSSLRAEDTAVYYCAREGGGDILTGNEFEFWGQGTLVTVSS
VL: QSVLTQPPSVSGAPGQTVTISCTGGSSNTGAGYDVHWYQQLPGTAPKLLIFANKNRPSGVPDRFSGSKSGTSASLSITGLQAEDEGDYYCQSYDSSLSGWVFGGGTKVTVL
B10: BD55-5233 (antibody, V domains shown)
VH: EVQLLESGGGLVQPGGSLRLSCAASGFTFSRSSMGWVRQAPGKGLEWVSTISEDGYTPYYADSVKGRFTISRDNSENRLFLQMNGLRAEDTALYYCAKDVDFDKWRQTCFDSWGQGALVTVSS
VL: QSVLTQPPSVSGAPGQRVTISCTGSNSNIGAGYDVHWYQQLPGTAPKLLIYGNNNRPSGVPDRFSGSKSGTSASLAITGLQAEDEADYYCQSYDSSLNVLYVFGTGTRVTVL
B11: BD55-5245 (antibody, V domains shown)
VH: QVQLVQSGAEVKKPGSSVKVSCKASGGSLSSDGINWVRQAPGQGLEWLGRIIPIPGIADNAQKFQGRVTITADKSTSTAYMELSSLRSEDTAVYYCARAPPRGYSGYDLLGNDAFDIWGQGTMVTVSS
VL: B10 VL with N26S, I50L, N54T, S65T, S95T, N98S, V99G, L100S, R108K, T110A
B12: BD55-5239 (antibody, V domains shown)
VH: QVQLQESGPGLVRPSQTLSLTCSVSGGSISSGTYNWAWIRQPPGKDLEWIGHIYHSGSTYYNPSLRSRVNMSVDTSKNQFSLKLSSVTAADTAVYYCARERGPIAEFDFWGQGILVTVSS
VL: DIQMTQSPSSVSASIGDGVTITCRASQGISSWLAWYQQRPGKAPKLLISAAFTLQSGVPSRFSARGSGTDFTLIISNLQPEDFATYYCQQANSFPPTFGQGTKLEIK
B13: BD55-5271 (antibody, V domains shown)
VH: QVTLKESGPVLVKPTETLTLTCTVSGISLNNARMAVSWIRQPPGKALEWLAHILSNDEKSFSKSLTSRLTISKDSSKNQVVLRLTNMDPVDTGTYYCARIVYDSSSYYYSGDNWFDPWGQGTQVTVSS
VL: SYELTQPPSVSVSPGQTARITCTGDAFPNQYAYWYQQKSGQAPVLVIYKDSERPSGIPERFSGSSAGTTVTLTISGVQAEDEADYYCQSADSRGVVFGGGTKVTVL
B14: BD55-5228 (antibody, V domains shown)
VH: QVHLVQSGSELKKPGASVKVSCKSSGHTFTIFAINWVRQAPGQGLEWMGWINTNTGNPTYAQGFTGRFVFSLDTSVNTAYLQISSLQPEDTAVYYCVGSNWGDYYFDPWGQGTLVTVSS
VL: EIVMTQSPATLSVSPGERATLSCRASYSLSSNLAWYQQKPGQAPRLLIYGASIRATGFPARFSGNGSGTEFTLTISSLQSEDFAVYYCQQYTSWPLTFGQGTKVEIK
B15: BD55-5219 (antibody, V domains shown)
VH: QVQLVQSGSELKRLGASVTLSCKASGYTFTNYAINWVRQAPGHGLQWMGWINPDTGTPTYAQGFAGRFVFSLDSSVSTSYLQIRSLKADDTAVYYCARDANQWPRNQWFGPWGQGTLVTVSS
VL: DIVLTQSPDSLAVSLGERATINCKSSHSVFYSSSNQNDLAWYQQKPGQPPKLLIYWASIRESGVPDRFSGSGSGTDFTLTISSLQAEDVAVYYCQQHYSTPLTFGGGTKVEIK
B16: BD55-5268 (antibody, V domains shown)
VH: QVQLQQRGAGLLRPSETLSLTCDVSGGSFSGYYWNWVRQPPGKGLEWIGDIDLAGDNYNPSLKSRVTMSIDASKNQFSLRLSSVTAADTAVYFCVRAPNLGWFGPKQGAFDLWGQGTVVIVSS
VL: not shown
B17: BD55-5242 (antibody, V domains shown)
VH: QVQLVQSGAEVKKPGASVKVSCKAFGYTFNSNYIHWVRQAPGQGLEWMGVIDPSGGATSYAQKFQGRVTMTRDTSTNTVYMELSSLRSEDTAVYYCARDLGDDVSRGYSGYDFLDLYGMDVWGQGTTVTVS
VL: not shown
B18: BD55-5223 (antibody, V domains shown)
VH: EVQLLESGGGWVQPGGSLRLSCAASGFTFSSYAMSWVRQAPGKGLEWVSAISNTGGSTYYADSVKGRFTVSRDDSKNTLYLQMNSLRAEDTAVYYCAKNWDSIGYTSGWQHLDWFDPWGQGTLVTVSS
VL: DIQMTQSPSSLSASVGDRVTITCRASQSINTYLNWYQQKPGKAPKLLIYVASSLQSGVPSRFSGSGSGTDFTLTISSLQPEDFATYYCQQSYSSPSITFGQGTRLEIK
B19: BD55-5263 (antibody, V domains shown)
VH: QVQLVQSGAEVKKPGASVKVSCKGSGYIFTNYGVSWVRQAPGQGLECMGWISAYNGNTDYTQKFQGRVTMTTDTSTSTAYMELRSLTSDDTAVYYCARAAHNWGPEDAFDIWGQGSMVTVSS
VL: not shown
B20: BD55-5264 (antibody, V domains shown)
VH: QVQLVQSGAEVKKPGASVKVSCKVSGYTLTKFSIHWVRQGHGKGLEWMGGFDIGEGGTIYAQKFQGRVTMTEDTSTDTSYMELSSLRSEDTAMYYCATDGEYSSGWAGVKLWGQGTLVTVSS
VL: DIQMTQSPSTLSASVGDRVTITCRASQSISSWLAWYQQKPGKAPKLLIYKASSLESGVPSRFSGSGSGTEFTLTISSLQPDDFATYYCQQCDSYPWTFGQGTKVEIK
B21: BD55-5250 (antibody, V domains shown)
VH: QVQLVQSGAEVKKPGASVKVSCKASGYTFTSNAIHWVRQAPGQRLEWMGWIMADNGYTKYSENFQGRVTITRDTSASTVYMEVSSLRSGDTAVYYCAREGSMWYSTYFDHWGQGTLVTVSS
VL: DIQMTQSPSSLSASVGDRVTITCRASQSISSYLTWYQQKSGTAPKLLIYAASSLQSGVPSRFSGSGSGTDFTLTISSLQPEDFATYYCQQSYTDPFTFGPGTKVDFK
B22: BD55-5236 (antibody, V domains shown)
VH: QVQLVQSGAEVKKPGSSVKVSCKASGGTFTSQAISWVRQAPGQGLEWMGRIITVLGTTTYAQKFQGRLRITADRSTNTAYMDLTGLTSDDTAVYFCARDLDGYSGYDFGSSERRDSFYFDYWGQGTLVNVPS
VL: SSELTQDPPVSVALGQTVRITCQGDSLRTYYASWFQQKPGQAPLLVVYGKNYRPSGIPARFSGSFSGNTASLTITGAQAEDEADYYCNSRDSNNDHHVIFGGGTKLTVL
B23: BD55-5267 (antibody, V domains shown)
VH: QVQLQESGPGLVKPSGTLSLTCAVSGGSISSSNWWSWVRQPPGKGLEWIGEIYHSGSTNYNPSLKSRVTISVDKSKNKFSLKLSSVTAADTAVYFCARAGWIESGYDAFVGYFDYWGQGTLVTVSS
VL: DIQMTQSPSSLSASVGDRVTITCRASQGISSSLAWYQQKPGKAPDLLLYAASGLESGVPSRFSGSGSGTDFTLSISSLQPEDFATYYCQQYYSPPRTFGQGTKLEIK

These binders were tested against SARS-CoV-2 (WT) Spike RBD Protein (His Tag) (SARS-CoV-2 ancestral (Wuhan-Hu-1), UniProt P0DTC2).
B1: binds. B2: binds. B3: binds. B4: binds. B5: binds. B6: binds. B7: binds. B8: binds. B9: binds. B10: binds. B11: binds. B12: binds. B13: binds. B14: binds. B15: binds. B16: binds. B17: binds. B18: binds. B19: binds. B20: binds. B21: binds. B22: binds. B23: binds.
